The target of the experiment is human CD20 (human) (UniProt P11836). Kind of experiment: cell-based or functional assay.
UniProt P11836, sequence (P11836 whole entry): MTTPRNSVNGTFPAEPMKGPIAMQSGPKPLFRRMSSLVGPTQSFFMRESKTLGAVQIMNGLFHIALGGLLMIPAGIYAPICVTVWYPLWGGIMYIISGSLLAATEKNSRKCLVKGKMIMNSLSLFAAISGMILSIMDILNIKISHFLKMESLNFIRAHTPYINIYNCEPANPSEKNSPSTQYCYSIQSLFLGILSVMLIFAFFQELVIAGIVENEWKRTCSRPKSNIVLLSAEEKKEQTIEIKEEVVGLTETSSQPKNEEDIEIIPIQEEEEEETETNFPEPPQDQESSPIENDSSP

Rituximab (antibody): the ADCC by haNK cells for SUP-B15^CD20 at the highest 10:1 ET ratio worked out at 60%.

The values are drawn from patent US20210040175A1.
